What is called Ki is a dissociation constant, usually derived from enzyme kinetics or from competition with a known ligand.

Two molecules from patent publication US20100278752A1 (RHODE ISLAND BOARD OF GOVERNORS FOR HIGHER EDUCATION, published 2010) can be followed below.

The target of test [1] is Cathepsin X/Z/P (Homo sapiens (Human), UniProt Q9UBR2 62-303). The test can be described thus: cell-based or functional assay.
The target in test [2] is Cathepsin C. The test can be described thus: cell-based or functional assay.
Test [3] deals with Cathepsin S. The test can be described thus: cell-based or functional assay.
In test [4] the target is Cathepsin V. The test can be described thus: cell-based or functional assay.
In test [5] the target is T1, Cathepsin L (Homo sapiens (Human), UniProt P07711 114-333). Nature of the test: cell-based or functional assay.
T1 sequence (P07711 114-333 limits assumed, form in doubt): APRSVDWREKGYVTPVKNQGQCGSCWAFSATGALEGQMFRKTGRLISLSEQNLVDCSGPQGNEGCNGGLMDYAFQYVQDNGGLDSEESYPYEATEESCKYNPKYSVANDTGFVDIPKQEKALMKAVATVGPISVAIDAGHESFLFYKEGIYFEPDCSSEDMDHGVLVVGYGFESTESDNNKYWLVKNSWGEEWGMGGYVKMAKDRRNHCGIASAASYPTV
Test [6] addresses T1, Cathepsin L. The test can be described thus: enzyme kinetics for tight binding inhibition: Morrison's equation, Ki* plotted against substrate concentration, y intercept of the linear regression.

Chain of Cathepsin X/Z/P (Q9UBR2 62-303 limits assumed, form in doubt): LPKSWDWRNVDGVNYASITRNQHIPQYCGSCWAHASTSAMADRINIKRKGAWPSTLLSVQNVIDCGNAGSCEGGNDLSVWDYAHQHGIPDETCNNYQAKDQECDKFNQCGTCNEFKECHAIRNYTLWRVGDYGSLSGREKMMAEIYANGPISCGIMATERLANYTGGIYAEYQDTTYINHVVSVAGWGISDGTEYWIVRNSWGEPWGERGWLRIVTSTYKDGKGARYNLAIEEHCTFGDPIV

B1: Sialostatin L (other)
chain: MTGVFGGYSERANHQANPEFLNLAHYATSTWSAQQPGKTHFDTVAEVVKVETQVVAGTNYRLTLKVAESTCELTSTYNKDTCLPKADAAHRTCTTVVFENLQGDKSVSPFECEAA
Consider B1, for which the “IC50 (inhibitor concentration at which 50% inhibition of enzymatic activity is achieved); 16 nM enzyme” value in test [1] was found to be 937 nM. The “IC50 (inhibitor concentration at which 50% inhibition of enzymatic activity is achieved); 10 nM enzyme” value in test [2] is 52.2 nM. For the same molecule, the “IC50 (inhibitor concentration at which 50% inhibition of enzymatic activity is achieved); 60 pM enzyme” value in test [3] was determined as 0.7 nM. For the same molecule, the “IC50 (inhibitor concentration at which 50% inhibition of enzymatic activity is achieved); 1 nM enzyme” value in test [4] is 24.1 nM. Moreover, the “IC50 (inhibitor concentration at which 50% inhibition of enzymatic activity is achieved); 20 pM enzyme” value in test [5] turned out to be 126 pM.

B2: Sialostatin L2 (other)
chain: MELALRGGYRERSNQDDPEYLELAHYATSTWSAQQPGKTHFDTVVEVLKVETQTVAGTNYRLTLKVAESTCELTSTYNKDTCQANANAAQRTCTTVIYRNLQGEKSISSFECAAA
notes: Recombinant protein overexpressed in bacteria; also called second salivary cystatin; novel cystatin
B2 had an inhibitory constant (Ki) in test [6] of 0.0655 nM. Also, the “IC50 (inhibitor concentration at which 50% inhibition of enzymatic activity is achieved); 10 nM enzyme” value in test [2] came out at 740 nM. In test [3], the “IC50 (inhibitor concentration at which 50% inhibition of enzymatic activity is achieved); 60 pM enzyme” value worked out at 378 nM. For the same molecule, the “IC50 (inhibitor concentration at which 50% inhibition of enzymatic activity is achieved); 1 nM enzyme” value in test [4] was determined as 28.8 nM. Also, in test [5], the “IC50 (inhibitor concentration at which 50% inhibition of enzymatic activity is achieved); 20 pM enzyme” value was 70.9 pM.
